B1: Post-transcriptional regulator MTA (Human herpesvirus 8), Q2HR75 (parent)
chain: MVQAMIDMDIMKGILEDSVSSSEFDESRDDETDAPTLEDEQLSEPAEPPADERIRGTQSAQGIPPPLGRIPKKSQGRSQLRSEIQFCSPLSRPRSPSPVNRYGKKIKFGTAGQNTRPPPEKRPRRRPRDRLQYGRTTRGGQCRAAPKRATRRPQVNCQRQDDDVRQGVSDAVKKLRLPASMIIDGESPRFDDSIIPRHHGACFNVFIPAPPSHVPEVFTDRDITALIRAGGKDDELINKKISAKKIDHLHRQMLSFVTSRHNQAYWVSCRRETAAAGGLQTLGAFVEEQMTWAQTVVRHGGWFDEKDIDIILDTAIFVCNAFVTRFRLLHLSCVFDKQSELALIKQVAYLVAMGNRLVEACNLLGEVKLNFRGGLLLAFVLTIPGMQSRRSISARGQELFRTLLEYYRPGDVMGLLNVIVMEHHSLCRNSECAAATRAAMGSAKFNKGLFFYPLS

Variants of: B1
Conditions: with thoc4_human ALYREF
MVQAMIDMDIMKGILEDSVSSSEFDESRDDETDAPTLEDEQLSEPAEPPADERIRGTQSAQGIPPPLGRIPKKSQGRSQLRSEIQFCSPLSRPRSPSPVNRYGKKIKFGTAGQNTRPPPEMRPRRRPRDRLQYGRTTRGGQCRAAPKRATRRPQVNCQRQDDDVRQGVSDAVKKLRLPASMIIDGESPRFDDSIIPRHHGACFNVFIPAPPSHVPEVFTDRDITALIRAGGKDDELINKKISAKKIDHLHRQMLSFVTSRHNQAYWVSCRRETAAAGGLQTLGAFVEEQMTWAQTVVRHGGWFDEKDIDIILDTAIFVCNAFVTRFRLLHLSCVFDKQSELALIKQVAYLVAMGNRLVEACNLLGEVKLNFRGGLLLAFVLTIPGMQSRRSISARGQELFRTLLEYYRPGDVMGLLNVIVMEHHSLCRNSECAAATRAAMGSAKFNKGLFFYPLS [K121M] was tested, and the “effect of a mutation on the interaction” value was “disrupting interaction”. For MVQAMIDMDIMKGILEDSVSSSEFDESRDDETDAPTLEDEQLSEPAEPPADERIRGTQSAQGIPPPLGRIPKKSQGRSQLRSEIQFCSPLSRPRSPSPVNRYGKKIKFGTAGQNTRPPPEKRPRREPRDRLQYGRTTRGGQCRAAPKRATRRPQVNCQRQDDDVRQGVSDAVKKLRLPASMIIDGESPRFDDSIIPRHHGACFNVFIPAPPSHVPEVFTDRDITALIRAGGKDDELINKKISAKKIDHLHRQMLSFVTSRHNQAYWVSCRRETAAAGGLQTLGAFVEEQMTWAQTVVRHGGWFDEKDIDIILDTAIFVCNAFVTRFRLLHLSCVFDKQSELALIKQVAYLVAMGNRLVEACNLLGEVKLNFRGGLLLAFVLTIPGMQSRRSISARGQELFRTLLEYYRPGDVMGLLNVIVMEHHSLCRNSECAAATRAAMGSAKFNKGLFFYPLS [R126E], the “effect of a mutation on the interaction” value was “disrupting interaction”. For MVQAMIDMDIMKGILEDSVSSSEFDESRDDETDAPTLEDEQLSEPAEPPADERIRGTQSAQGIPPPLGRIPKKSQGRSQLRSEIQFCSPLSRPRSPSPVNRYGKKIKFGTAGQNTRPPPEKRPRRRPSDRLQYGRTTRGGQCRAAPKRATRRPQVNCQRQDDDVRQGVSDAVKKLRLPASMIIDGESPRFDDSIIPRHHGACFNVFIPAPPSHVPEVFTDRDITALIRAGGKDDELINKKISAKKIDHLHRQMLSFVTSRHNQAYWVSCRRETAAAGGLQTLGAFVEEQMTWAQTVVRHGGWFDEKDIDIILDTAIFVCNAFVTRFRLLHLSCVFDKQSELALIKQVAYLVAMGNRLVEACNLLGEVKLNFRGGLLLAFVLTIPGMQSRRSISARGQELFRTLLEYYRPGDVMGLLNVIVMEHHSLCRNSECAAATRAAMGSAKFNKGLFFYPLS [R128S], the “effect of a mutation on the interaction” value was “disrupting interaction”. For MVQAMIDMDIMKGILEDSVSSSEFDESRDDETDAPTLEDEQLSEPAEPPADERIRGTQSAQGIPPPLGRIPKKSQGRSQLRSEIQFCSPLSRPRSPSPVNRYGKKIKFGTAGQNTRPPPEKRPRRRPRDRLQYGRTTRGGQCRAAPKRATRGPQVNCQRQDDDVRQGVSDAVKKLRLPASMIIDGESPRFDDSIIPRHHGACFNVFIPAPPSHVPEVFTDRDITALIRAGGKDDELINKKISAKKIDHLHRQMLSFVTSRHNQAYWVSCRRETAAAGGLQTLGAFVEEQMTWAQTVVRHGGWFDEKDIDIILDTAIFVCNAFVTRFRLLHLSCVFDKQSELALIKQVAYLVAMGNRLVEACNLLGEVKLNFRGGLLLAFVLTIPGMQSRRSISARGQELFRTLLEYYRPGDVMGLLNVIVMEHHSLCRNSECAAATRAAMGSAKFNKGLFFYPLS [R152G], the “effect of a mutation on the interaction” value was “disrupting interaction”. In the case of MVQAMIDMDIMKGILEDSVSSSEFDESRDDETDAPTLEDEQLSEPAEPPADERIRGTQSAQGIPPPLGRIPKKSQGRSQLRSEIQFCSPLSRPRSPSPVNRYGKKIKFGTAGQNTRPPPEKSPRRRPRDRLQYGRTTRGGQCRAAPKRATRRPQVNCQRQDDDVRQGVSDAVKKLRLPASMIIDGESPRFDDSIIPRHHGACFNVFIPAPPSHVPEVFTDRDITALIRAGGKDDELINKKISAKKIDHLHRQMLSFVTSRHNQAYWVSCRRETAAAGGLQTLGAFVEEQMTWAQTVVRHGGWFDEKDIDIILDTAIFVCNAFVTRFRLLHLSCVFDKQSELALIKQVAYLVAMGNRLVEACNLLGEVKLNFRGGLLLAFVLTIPGMQSRRSISARGQELFRTLLEYYRPGDVMGLLNVIVMEHHSLCRNSECAAATRAAMGSAKFNKGLFFYPLS [R122S], the “effect of a mutation on the interaction” value is reported as “disrupting interaction”. MVQAMIDMDIMKGILEDSVSSSEFDESRDDETDAPTLEDEQLSEPAEPPADERIRGTQSAQGIPPPLGRIPKKSQGRSQLRSEIQFCSPLSRPRSPSPVNRYGKKIKFGTAGQNTRPPPEKRPRRRPRDRLQYGRTTRGGQCDAAPKRATRRPQVNCQRQDDDVRQGVSDAVKKLRLPASMIIDGESPRFDDSIIPRHHGACFNVFIPAPPSHVPEVFTDRDITALIRAGGKDDELINKKISAKKIDHLHRQMLSFVTSRHNQAYWVSCRRETAAAGGLQTLGAFVEEQMTWAQTVVRHGGWFDEKDIDIILDTAIFVCNAFVTRFRLLHLSCVFDKQSELALIKQVAYLVAMGNRLVEACNLLGEVKLNFRGGLLLAFVLTIPGMQSRRSISARGQELFRTLLEYYRPGDVMGLLNVIVMEHHSLCRNSECAAATRAAMGSAKFNKGLFFYPLS [R143D] was tested, and the “effect of a mutation on the interaction” value was “disrupting interaction”. With MVQAMIDMDIMKGILEDSVSSSEFDESRDDETDAPTLEDEQLSEPAEPPADERIRGTQSAQGIPPPLGRIPKKSQGRSQLRSEIQFCSPLSRPRSPSPVNRYGKKIKFGTAGQNTRPPPEKRPRRRPRDRLQYGRTTRGGQCRAAPERATRRPQVNCQRQDDDVRQGVSDAVKKLRLPASMIIDGESPRFDDSIIPRHHGACFNVFIPAPPSHVPEVFTDRDITALIRAGGKDDELINKKISAKKIDHLHRQMLSFVTSRHNQAYWVSCRRETAAAGGLQTLGAFVEEQMTWAQTVVRHGGWFDEKDIDIILDTAIFVCNAFVTRFRLLHLSCVFDKQSELALIKQVAYLVAMGNRLVEACNLLGEVKLNFRGGLLLAFVLTIPGMQSRRSISARGQELFRTLLEYYRPGDVMGLLNVIVMEHHSLCRNSECAAATRAAMGSAKFNKGLFFYPLS [K147E] the “effect of a mutation on the interaction” value was “disrupting interaction”. MVQAMIDMDIMKGILEDSVSSSEFDESRDDETDAPTLEDEQLSEPAEPPADERIRGTQSAQGIPPPLGRIPKKSQGRSQLRSEIQFCSPLSRPRSPSPVNRYGKKIKFGTAGQNTRPPPEKRPRRRPRDRLQYGRTTRGGQCRAAPKQATRRPQVNCQRQDDDVRQGVSDAVKKLRLPASMIIDGESPRFDDSIIPRHHGACFNVFIPAPPSHVPEVFTDRDITALIRAGGKDDELINKKISAKKIDHLHRQMLSFVTSRHNQAYWVSCRRETAAAGGLQTLGAFVEEQMTWAQTVVRHGGWFDEKDIDIILDTAIFVCNAFVTRFRLLHLSCVFDKQSELALIKQVAYLVAMGNRLVEACNLLGEVKLNFRGGLLLAFVLTIPGMQSRRSISARGQELFRTLLEYYRPGDVMGLLNVIVMEHHSLCRNSECAAATRAAMGSAKFNKGLFFYPLS [R148Q] was tested, and the “effect of a mutation on the interaction” value was “disrupting interaction”. MVQAMIDMDIMKGILEDSVSSSEFDESRDDETDAPTLEDEQLSEPAEPPADERIRGTQSAQGIPPPLGRIPKKSQGRSQLRSEIQFCSPLSRPRSPSPVNRYGKKIKFGTAGQNTRPPPEKRPRRRPRDRLQYGRTTRGGQCRAAPKRATDRPQVNCQRQDDDVRQGVSDAVKKLRLPASMIIDGESPRFDDSIIPRHHGACFNVFIPAPPSHVPEVFTDRDITALIRAGGKDDELINKKISAKKIDHLHRQMLSFVTSRHNQAYWVSCRRETAAAGGLQTLGAFVEEQMTWAQTVVRHGGWFDEKDIDIILDTAIFVCNAFVTRFRLLHLSCVFDKQSELALIKQVAYLVAMGNRLVEACNLLGEVKLNFRGGLLLAFVLTIPGMQSRRSISARGQELFRTLLEYYRPGDVMGLLNVIVMEHHSLCRNSECAAATRAAMGSAKFNKGLFFYPLS [R151D] was tested, and the “effect of a mutation on the interaction” value was “disrupting interaction”. With MVQAMIDMDIMKGILEDSVSSSEFDESRDDETDAPTLEDEQLSEPAEPPADERIRGTQSAQGIPPPLGRIPKKSQGRSQLRSEIQFCSPLSRPRSPSPVNRYGKKIKFGTAGQNTRPPPEKRPQRRPRDRLQYGRTTRGGQCRAAPKRATRRPQVNCQRQDDDVRQGVSDAVKKLRLPASMIIDGESPRFDDSIIPRHHGACFNVFIPAPPSHVPEVFTDRDITALIRAGGKDDELINKKISAKKIDHLHRQMLSFVTSRHNQAYWVSCRRETAAAGGLQTLGAFVEEQMTWAQTVVRHGGWFDEKDIDIILDTAIFVCNAFVTRFRLLHLSCVFDKQSELALIKQVAYLVAMGNRLVEACNLLGEVKLNFRGGLLLAFVLTIPGMQSRRSISARGQELFRTLLEYYRPGDVMGLLNVIVMEHHSLCRNSECAAATRAAMGSAKFNKGLFFYPLS [R124Q] the “effect of a mutation on the interaction” value was “disrupting interaction”. With MVQAMIDMDIMKGILEDSVSSSEFDESRDDETDAPTLEDEQLSEPAEPPADERIRGTQSAQGIPPPLGRIPKKSQGRSQLRSEIQFCSPLSRPRSPSPVNRYGKKIKFGTAGQNTRPPPEKRPRRRPRDGLQYGRTTRGGQCRAAPKRATRRPQVNCQRQDDDVRQGVSDAVKKLRLPASMIIDGESPRFDDSIIPRHHGACFNVFIPAPPSHVPEVFTDRDITALIRAGGKDDELINKKISAKKIDHLHRQMLSFVTSRHNQAYWVSCRRETAAAGGLQTLGAFVEEQMTWAQTVVRHGGWFDEKDIDIILDTAIFVCNAFVTRFRLLHLSCVFDKQSELALIKQVAYLVAMGNRLVEACNLLGEVKLNFRGGLLLAFVLTIPGMQSRRSISARGQELFRTLLEYYRPGDVMGLLNVIVMEHHSLCRNSECAAATRAAMGSAKFNKGLFFYPLS [R130G] the “effect of a mutation on the interaction” value was “disrupting interaction”. For MVQAMIDMDIMKGILEDSVSSSEFDESRDDETDAPTLEDEQLSEPAEPPADERIRGTQSAQGIPPPLGRIPKKSQGRSQLRSEIQFCSPLSRPRSPSPVNRYGKKIKFGTAGQNTRPPPEKRPRGRPRDRLQYGRTTRGGQCRAAPKRATRRPQVNCQRQDDDVRQGVSDAVKKLRLPASMIIDGESPRFDDSIIPRHHGACFNVFIPAPPSHVPEVFTDRDITALIRAGGKDDELINKKISAKKIDHLHRQMLSFVTSRHNQAYWVSCRRETAAAGGLQTLGAFVEEQMTWAQTVVRHGGWFDEKDIDIILDTAIFVCNAFVTRFRLLHLSCVFDKQSELALIKQVAYLVAMGNRLVEACNLLGEVKLNFRGGLLLAFVLTIPGMQSRRSISARGQELFRTLLEYYRPGDVMGLLNVIVMEHHSLCRNSECAAATRAAMGSAKFNKGLFFYPLS [R125G], the “effect of a mutation on the interaction” value was “disrupting interaction”.

Variants of: B1
Conditions: with thoc4_human ALYREF
Remark: another data set of the same source
MVQAMIDMDIMKGILEDSVSSSEFDESRDDETDAPTLEDEQLSEPAEPPADERIRGTQSAQGIPPPLGRIPKKSQGRSQLRSEIQFCSPLSRPRSPSPVNRYGKKIEFGTAGQNTRPPPEKRPRRRPRDRLQYGRTTRGGQCRAAPKRATRRPQVNCQRQDDDVRQGVSDAVKKLRLPASMIIDGESPRFDDSIIPRHHGACFNVFIPAPPSHVPEVFTDRDITALIRAGGKDDELINKKISAKKIDHLHRQMLSFVTSRHNQAYWVSCRRETAAAGGLQTLGAFVEEQMTWAQTVVRHGGWFDEKDIDIILDTAIFVCNAFVTRFRLLHLSCVFDKQSELALIKQVAYLVAMGNRLVEACNLLGEVKLNFRGGLLLAFVLTIPGMQSRRSISARGQELFRTLLEYYRPGDVMGLLNVIVMEHHSLCRNSECAAATRAAMGSAKFNKGLFFYPLS [K107E] was tested, and the “effect of a mutation on the interaction” value was “disrupting interaction”.

From IntAct's records for PubMed 19850040
